± gives the uncertainty stated by the source.
Assay: self-splicing fitness, log relative to wild type (ln ratio); higher = more splicing; Tetrahymena group I intron in knt gene, E. coli kanamycin selection, DiMSum; sequences stand for … in CUCUCU…GGAGGGAAAAGUUAUCAGGCAUGCACCUGGUAGCUAGUCUUUAAACCAAUAGAUUGCAUCGGUUUAAAAGGCAAGACCGUCAAAUUGCGGGAAAGGGGUCAACAGCCGUUCAGUACCAAGUCUCAGGGGAAACUUUGAGAUGGCCUUGCAAAGGGUAUGGUAAUAAGCUGACGGACAUGGUCCUAACCACGCAGCCAAGUCCUAAGUCAACAGAUCUUCUGUUGAUAUGGAUGCAGUUCACAGACUAAAUGUCGGUCGGGGAAGAUGUAUUCUUCUCAUAAGAUAUAGUCGGACCUCUCCUUAAUGGGAGCUAGCGGAUGAAGUGAUGCAACACUGGAGCCGCUGGGAACUAAUUUGUAUGCGAAAGUAUAUUGAUUAGUUUUGGAGUACUCGUGGUCG
Outline: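 The eight P1ex-region nucleotides of an intron in the knt kanamycin-resistance gene on pET-22b(+) were all randomised and the library put into E. coli BL21(DE3). Six replicate transformations were grown overnight at 37°C or 30°C on LB agar with or without 25 μg/mL kanamycin, together with 100 μg/mL carbenicillin, 50 μM IPTG and 0.2% rhamnose. Colonies were pooled and amplicon-sequenced on an Illumina HiSeq 2500. Fitness from DiMSum is the error-weighted combination of wild-type-normalised replicate fold changes, kanamycin over none.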

| Sequence | self-splicing fitness (ln) (30 °C) | self-splicing fitness (ln) (37 °C) |
| --- | --- | --- |
| GAAGAGCAAUAUUACGGCGU | -1.48 ± 0.1 | -0.224 ± 0.12 |
| GAAGAGCAAUAUUACGGGCA | -1.96 ± 0.16 | -1.23 ± 0.14 |
| GAAGAGCAAUAUUACGGGCC | -2.16 ± 0.29 |  |
| GAAGAGCAAUAUUACGGGGA | -2.93 ± 0.43 | -0.71 ± 0.31 |
| GAAGAGCAAUAUUACGGUAC | -3.39 ± 0.31 | -1.69 ± 0.32 |
| GAAGAGCAAUAUUACGGUGG | -4.19 ± 0.33 | -3.17 ± 0.32 |
| GAAGAGCAAUAUUACGUACC | -1.6 ± 0.2 | -1.49 ± 0.19 |
| GAAGAGCAAUAUUACGUAUG | -3.52 ± 0.23 | -2.16 ± 0.17 |
| GAAGAGCAAUAUUACGUGUA | -2.66 ± 0.2 | -2.76 ± 0.19 |
| GAAGAGCAAUAUUACGUGUG | -3.15 ± 0.22 | -2.67 ± 0.18 |
| GAAGAGCAAUAUUACGUUAU | -3.85 ± 0.25 | -1.47 ± 0.2 |
| GAAGAGCAAUAUUACGUUCG | -1.52 ± 0.11 | -0.987 ± 0.14 |
| GAAUAGCAAUAUUACGAACC | 0.0666 ± 0.21 | 0.816 ± 0.24 |
| GAAUAGCAAUAUUACGAAUU | -1.78 ± 0.084 | -0.497 ± 0.1 |
| GAAUAGCAAUAUUACGACAA | -0.386 ± 0.13 | -0.329 ± 0.13 |
| GAAUAGCAAUAUUACGACAG | -3.2 ± 0.28 | -2.62 ± 0.35 |
| GAAUAGCAAUAUUACGAGAA | -2.39 ± 0.46 | -1.6 ± 0.38 |
| GAAUAGCAAUAUUACGAUGG | -2.74 ± 0.14 | -0.977 ± 0.12 |
| GAAUAGCAAUAUUACGAUUU | -1.74 ± 0.12 | -0.649 ± 0.11 |
| GAAUAGCAAUAUUACGCACC | -1.19 ± 0.23 | 0.185 ± 0.32 |
| GAAUAGCAAUAUUACGCGAA | -3.09 ± 0.21 | -1.96 ± 0.2 |
| GAAUAGCAAUAUUACGCGUA | -2.17 ± 0.16 | -0.973 ± 0.13 |
| GAAUAGCAAUAUUACGCUAC | -1.75 ± 0.48 |  |
| GAAUAGCAAUAUUACGGAUG | -2.29 ± 0.099 | -2.01 ± 0.12 |
| GAAUAGCAAUAUUACGGCCC | -0.303 ± 0.14 | 0.174 ± 0.21 |

| Sequence | self-splicing fitness (ln) (30 °C) | self-splicing fitness (ln) (37 °C) |
| --- | --- | --- |
| GAAUAGCAAUAUUACGGGAC | -3.37 ± 0.31 | -2.53 ± 0.3 |
| GAAUAGCAAUAUUACGGGCA | -1.19 ± 0.083 | -1.2 ± 0.085 |
| GAAUAGCAAUAUUACGGGUC | -1.89 ± 0.21 | -2.68 ± 0.33 |
| GAAUAGCAAUAUUACGGUGC | -2.18 ± 0.22 | -2.78 ± 0.27 |
| GAAUAGCAAUAUUACGUAAA | -1.94 ± 0.13 | -2.03 ± 0.14 |
| GAAUAGCAAUAUUACGUAGG | -3.4 ± 0.15 | -2.68 ± 0.2 |
| GAAUAGCAAUAUUACGUAUG | -1.56 ± 0.12 | -1.04 ± 0.18 |
| GAAUAGCAAUAUUACGUCUA | -1.12 ± 0.12 | -0.42 ± 0.13 |
| GAAUAGCAAUAUUACGUGAC | -3.51 ± 0.28 | -1.43 ± 0.2 |
| GAAUAGCAAUAUUACGUGGC | -3.67 ± 0.27 | -1.34 ± 0.17 |
| GAAUAGCAAUAUUACGUUAC | -1.97 ± 0.13 | -1.6 ± 0.21 |
| GACAAGCAAUAUUACGAACC | -1.06 ± 0.14 | -0.514 ± 0.17 |
| GACAAGCAAUAUUACGAAUC | -2.49 ± 0.12 | -2.53 ± 0.16 |
| GACAAGCAAUAUUACGACCA | -0.459 ± 0.12 | -0.806 ± 0.13 |
| GACAAGCAAUAUUACGACGA | -0.615 ± 0.067 | 0.296 ± 0.095 |
| GACAAGCAAUAUUACGACGC | 0.305 ± 0.1 | 0.643 ± 0.13 |
| GACAAGCAAUAUUACGACGG | -3.3 ± 0.2 | -2.64 ± 0.17 |
| GACAAGCAAUAUUACGACUG | -0.381 ± 0.056 | -0.0494 ± 0.092 |
| GACAAGCAAUAUUACGAGGC | -2.4 ± 0.16 | -2.76 ± 0.32 |
| GACAAGCAAUAUUACGAUAG | -2.76 ± 0.22 | -0.828 ± 0.12 |
| GACAAGCAAUAUUACGCCGA | -1.19 ± 0.12 | -0.179 ± 0.14 |
| GACAAGCAAUAUUACGCCGG | -2.63 ± 0.32 | -1.92 ± 0.28 |
| GACAAGCAAUAUUACGCUUG | -4.51 ± 0.29 | -2.76 ± 0.27 |
| GACAAGCAAUAUUACGGCAA | -0.787 ± 0.075 | -0.384 ± 0.074 |
| GACAAGCAAUAUUACGGCCU | -0.429 ± 0.082 | -0.314 ± 0.1 |

| Sequence | self-splicing fitness (ln) (30 °C) | self-splicing fitness (ln) (37 °C) |
| --- | --- | --- |
| GACAAGCAAUAUUACGGGAG | -3.18 ± 0.11 | -1.52 ± 0.1 |
| GACAAGCAAUAUUACGGUGU | -3.98 ± 0.13 | -1.9 ± 0.11 |
| GACAAGCAAUAUUACGUAGC | -1.48 ± 0.069 | -0.611 ± 0.076 |
| GACAAGCAAUAUUACGUAUU | -2.83 ± 0.1 | -1.66 ± 0.11 |
| GACAAGCAAUAUUACGUCCU | -1.99 ± 0.27 | -0.755 ± 0.19 |
| GACAAGCAAUAUUACGUCUC | -4.15 ± 0.27 | -1.18 ± 0.19 |
| GACAAGCAAUAUUACGUGGA | -3.18 ± 0.16 | -1.42 ± 0.1 |
| GACAAGCAAUAUUACGUUGU | -3.54 ± 0.12 | -2.81 ± 0.14 |
| GACCAGCAAUAUUACGAAAU | -1.34 ± 0.093 | -0.476 ± 0.098 |
| GACCAGCAAUAUUACGACUC | -0.264 ± 0.06 | 0.162 ± 0.077 |
| GACCAGCAAUAUUACGAGAG | -3.61 ± 0.2 | -1.51 ± 0.13 |
| GACCAGCAAUAUUACGAGCU | -2.91 ± 0.14 | -1.41 ± 0.15 |
| GACCAGCAAUAUUACGAUAU | -0.781 ± 0.072 | -0.235 ± 0.086 |
| GACCAGCAAUAUUACGCAGU | -1.56 ± 0.067 | -0.904 ± 0.09 |
| GACCAGCAAUAUUACGCCAA | -2.99 ± 0.22 | -1.45 ± 0.15 |
| GACCAGCAAUAUUACGCCCC | -1.35 ± 0.17 | -0.908 ± 0.17 |
| GACCAGCAAUAUUACGCCGG | -2.59 ± 0.16 | -2.58 ± 0.29 |
| GACCAGCAAUAUUACGCCUU | -0.277 ± 0.07 | 0.293 ± 0.087 |
| GACCAGCAAUAUUACGCGAG | -1.37 ± 0.16 | -0.897 ± 0.13 |
| GACCAGCAAUAUUACGCGAU | -2.28 ± 0.11 | -1.17 ± 0.093 |
| GACCAGCAAUAUUACGCUGC | -3.73 ± 0.22 | -1.32 ± 0.15 |
| GACCAGCAAUAUUACGGAAC | -0.88 ± 0.098 | -0.504 ± 0.11 |
| GACCAGCAAUAUUACGGCGC | -0.331 ± 0.09 | 0.162 ± 0.1 |
| GACCAGCAAUAUUACGGCUC | -0.856 ± 0.13 | 0.658 ± 0.15 |
| GACCAGCAAUAUUACGGGGC | -2.78 ± 0.18 | -2.14 ± 0.15 |

| Sequence | self-splicing fitness (ln) (30 °C) | self-splicing fitness (ln) (37 °C) |
| --- | --- | --- |
| GACCAGCAAUAUUACGGUAA | 0.0402 ± 0.06 | -0.0565 ± 0.071 |
| GACCAGCAAUAUUACGGUGA | -0.339 ± 0.057 | -0.154 ± 0.081 |
| GACCAGCAAUAUUACGUAUU | -0.471 ± 0.049 | -0.139 ± 0.062 |
| GACCAGCAAUAUUACGUCCU | -1.86 ± 0.1 | 0.317 ± 0.11 |
| GACGAGCAAUAUUACGAAAA |  | -3.07 ± 0.37 |
| GACGAGCAAUAUUACGACGA | -0.98 ± 0.11 | -1.07 ± 0.12 |
| GACGAGCAAUAUUACGACGG | -1.82 ± 0.28 |  |
| GACGAGCAAUAUUACGAGGA | -2.28 ± 0.28 | -2.66 ± 0.36 |
| GACGAGCAAUAUUACGAGUA | -3.81 ± 0.39 | -3.26 ± 0.37 |
| GACGAGCAAUAUUACGAUGG | -3.7 ± 0.17 | -3 ± 0.2 |
| GACGAGCAAUAUUACGCAUA | -1.6 ± 0.21 | -0.87 ± 0.17 |
| GACGAGCAAUAUUACGCCAA | -3.23 ± 0.28 | -0.956 ± 0.3 |
| GACGAGCAAUAUUACGCGAC | -2.09 ± 0.26 | -1.04 ± 0.27 |
| GACGAGCAAUAUUACGCUCC | -2.9 ± 0.29 | -1.91 ± 0.34 |
| GACGAGCAAUAUUACGCUGC |  | -2.49 ± 0.49 |
| GACGAGCAAUAUUACGGAUU |  | -2.03 ± 0.19 |
| GACGAGCAAUAUUACGGGCA | -1.58 ± 0.18 | -2.56 ± 0.29 |
| GACGAGCAAUAUUACGGGUA | -3.66 ± 0.2 | -2.94 ± 0.2 |
| GACGAGCAAUAUUACGGUCA | -2.22 ± 0.15 | -0.552 ± 0.15 |
| GACGAGCAAUAUUACGGUUU | -2.28 ± 0.11 | -1.87 ± 0.14 |
| GACGAGCAAUAUUACGUACA | -3.04 ± 0.27 | -2.26 ± 0.2 |
| GACGAGCAAUAUUACGUAUC |  | -2.42 ± 0.35 |
